Data taken from IntAct's records for PubMed 17267444.

Columns and labels:
[1] = target: scar1_arath SCAR1 (UniProt Q6AWX6)
[2] = target: scarl_arath WAVE5 (UniProt Q5XPK0)
[3] = target: spk1_arath SPK1 (UniProt Q8SAB7)
[4] = target: scar2_arath SCAR2 (UniProt Q5XPJ9)
Chain of scar2_arath SCAR2 (Q5XPJ9 whole entry): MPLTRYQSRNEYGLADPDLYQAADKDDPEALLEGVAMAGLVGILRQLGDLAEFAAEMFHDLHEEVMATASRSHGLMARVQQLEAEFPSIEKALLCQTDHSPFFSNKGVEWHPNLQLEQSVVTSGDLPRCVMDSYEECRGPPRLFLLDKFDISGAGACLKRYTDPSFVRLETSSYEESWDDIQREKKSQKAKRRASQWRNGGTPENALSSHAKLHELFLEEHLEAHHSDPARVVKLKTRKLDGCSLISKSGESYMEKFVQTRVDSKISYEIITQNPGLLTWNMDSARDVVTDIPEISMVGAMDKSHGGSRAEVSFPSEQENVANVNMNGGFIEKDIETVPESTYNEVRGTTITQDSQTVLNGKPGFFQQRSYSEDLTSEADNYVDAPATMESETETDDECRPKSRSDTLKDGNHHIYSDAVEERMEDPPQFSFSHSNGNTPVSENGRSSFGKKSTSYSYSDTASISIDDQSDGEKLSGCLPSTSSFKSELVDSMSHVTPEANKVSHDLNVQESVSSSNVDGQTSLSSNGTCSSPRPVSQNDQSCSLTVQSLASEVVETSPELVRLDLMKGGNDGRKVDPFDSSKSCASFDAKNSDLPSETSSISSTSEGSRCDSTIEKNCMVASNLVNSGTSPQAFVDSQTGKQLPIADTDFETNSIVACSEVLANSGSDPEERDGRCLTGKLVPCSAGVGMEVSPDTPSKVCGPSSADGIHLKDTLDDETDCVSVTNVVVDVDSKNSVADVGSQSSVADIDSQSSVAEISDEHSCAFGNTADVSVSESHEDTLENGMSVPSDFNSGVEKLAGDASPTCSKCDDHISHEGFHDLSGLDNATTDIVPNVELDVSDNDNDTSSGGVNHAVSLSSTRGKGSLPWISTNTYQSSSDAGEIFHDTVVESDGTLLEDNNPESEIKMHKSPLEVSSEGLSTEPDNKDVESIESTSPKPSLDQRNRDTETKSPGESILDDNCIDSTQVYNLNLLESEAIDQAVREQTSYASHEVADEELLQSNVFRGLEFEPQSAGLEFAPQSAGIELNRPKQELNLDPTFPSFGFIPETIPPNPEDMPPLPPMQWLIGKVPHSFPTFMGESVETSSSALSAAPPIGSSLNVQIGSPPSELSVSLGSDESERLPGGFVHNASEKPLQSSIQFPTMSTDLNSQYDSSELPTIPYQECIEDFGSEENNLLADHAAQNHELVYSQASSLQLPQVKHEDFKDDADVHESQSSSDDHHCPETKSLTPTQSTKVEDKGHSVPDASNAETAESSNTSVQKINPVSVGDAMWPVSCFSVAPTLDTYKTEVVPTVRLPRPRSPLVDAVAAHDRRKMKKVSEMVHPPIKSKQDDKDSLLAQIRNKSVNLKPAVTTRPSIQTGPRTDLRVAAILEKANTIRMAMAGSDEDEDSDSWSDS

Chain of Rac-like GTP-binding protein ARAC9 (Arabidopsis thaliana (Mouse-ear cress)), Q9XGU0 G27V (Q9XGU0 whole entry G27V): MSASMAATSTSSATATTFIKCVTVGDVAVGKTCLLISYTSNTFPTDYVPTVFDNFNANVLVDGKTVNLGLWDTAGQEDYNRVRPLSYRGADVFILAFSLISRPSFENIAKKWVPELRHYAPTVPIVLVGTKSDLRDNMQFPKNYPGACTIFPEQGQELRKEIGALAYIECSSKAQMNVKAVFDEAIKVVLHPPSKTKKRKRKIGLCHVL
Chain of scarl_arath WAVE5 (Q5XPK0 whole entry): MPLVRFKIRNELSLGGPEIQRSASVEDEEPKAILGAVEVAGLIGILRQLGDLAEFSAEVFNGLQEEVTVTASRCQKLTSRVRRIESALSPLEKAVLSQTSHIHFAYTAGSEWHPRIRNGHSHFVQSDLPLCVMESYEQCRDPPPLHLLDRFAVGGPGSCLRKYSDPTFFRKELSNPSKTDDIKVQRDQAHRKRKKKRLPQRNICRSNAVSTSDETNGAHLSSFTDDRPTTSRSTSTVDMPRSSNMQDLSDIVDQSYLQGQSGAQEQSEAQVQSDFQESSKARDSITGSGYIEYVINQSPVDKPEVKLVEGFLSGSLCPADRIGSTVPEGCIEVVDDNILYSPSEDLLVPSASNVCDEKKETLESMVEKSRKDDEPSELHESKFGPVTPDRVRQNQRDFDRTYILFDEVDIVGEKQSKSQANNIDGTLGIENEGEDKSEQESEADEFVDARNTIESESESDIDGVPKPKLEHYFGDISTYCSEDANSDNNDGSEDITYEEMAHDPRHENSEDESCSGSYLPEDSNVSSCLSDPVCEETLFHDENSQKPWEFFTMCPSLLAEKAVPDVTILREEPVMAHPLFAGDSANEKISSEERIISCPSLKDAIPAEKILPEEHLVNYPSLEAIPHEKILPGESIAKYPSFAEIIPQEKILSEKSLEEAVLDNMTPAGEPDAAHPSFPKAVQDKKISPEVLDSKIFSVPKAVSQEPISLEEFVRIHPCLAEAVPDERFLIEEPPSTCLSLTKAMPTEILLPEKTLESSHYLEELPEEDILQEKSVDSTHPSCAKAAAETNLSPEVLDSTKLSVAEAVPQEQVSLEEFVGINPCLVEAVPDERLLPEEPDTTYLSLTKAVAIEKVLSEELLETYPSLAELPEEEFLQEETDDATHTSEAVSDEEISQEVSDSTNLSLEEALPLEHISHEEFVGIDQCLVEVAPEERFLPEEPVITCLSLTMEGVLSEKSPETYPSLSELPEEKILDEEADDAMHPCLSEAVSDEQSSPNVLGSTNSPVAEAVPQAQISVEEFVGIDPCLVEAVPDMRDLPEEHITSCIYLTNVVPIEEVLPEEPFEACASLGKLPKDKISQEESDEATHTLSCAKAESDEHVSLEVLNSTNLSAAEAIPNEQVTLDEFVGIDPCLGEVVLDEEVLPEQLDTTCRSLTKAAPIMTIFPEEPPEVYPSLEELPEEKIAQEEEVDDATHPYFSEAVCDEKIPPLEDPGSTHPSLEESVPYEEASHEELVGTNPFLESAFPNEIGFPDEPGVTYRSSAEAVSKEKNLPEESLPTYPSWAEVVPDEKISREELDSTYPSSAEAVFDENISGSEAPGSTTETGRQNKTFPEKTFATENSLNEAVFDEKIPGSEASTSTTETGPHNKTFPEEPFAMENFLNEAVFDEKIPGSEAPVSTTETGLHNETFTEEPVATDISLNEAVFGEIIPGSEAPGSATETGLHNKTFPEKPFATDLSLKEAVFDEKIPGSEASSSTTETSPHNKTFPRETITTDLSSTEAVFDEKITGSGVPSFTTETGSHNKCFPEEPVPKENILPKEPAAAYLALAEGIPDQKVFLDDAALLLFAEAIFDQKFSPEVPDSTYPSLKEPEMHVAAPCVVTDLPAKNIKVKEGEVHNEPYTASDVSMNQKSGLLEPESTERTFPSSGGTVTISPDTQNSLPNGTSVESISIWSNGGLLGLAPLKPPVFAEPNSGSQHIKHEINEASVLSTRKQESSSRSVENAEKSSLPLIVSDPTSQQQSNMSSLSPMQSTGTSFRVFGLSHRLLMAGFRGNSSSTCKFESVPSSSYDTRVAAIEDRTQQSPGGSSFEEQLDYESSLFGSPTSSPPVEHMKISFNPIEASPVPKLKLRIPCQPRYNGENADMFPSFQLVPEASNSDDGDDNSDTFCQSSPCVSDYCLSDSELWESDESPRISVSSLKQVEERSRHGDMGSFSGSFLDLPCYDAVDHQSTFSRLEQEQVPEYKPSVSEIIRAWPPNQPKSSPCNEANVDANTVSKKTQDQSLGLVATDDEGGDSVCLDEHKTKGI
Chain of scar1_arath SCAR1 (Q6AWX6 whole entry): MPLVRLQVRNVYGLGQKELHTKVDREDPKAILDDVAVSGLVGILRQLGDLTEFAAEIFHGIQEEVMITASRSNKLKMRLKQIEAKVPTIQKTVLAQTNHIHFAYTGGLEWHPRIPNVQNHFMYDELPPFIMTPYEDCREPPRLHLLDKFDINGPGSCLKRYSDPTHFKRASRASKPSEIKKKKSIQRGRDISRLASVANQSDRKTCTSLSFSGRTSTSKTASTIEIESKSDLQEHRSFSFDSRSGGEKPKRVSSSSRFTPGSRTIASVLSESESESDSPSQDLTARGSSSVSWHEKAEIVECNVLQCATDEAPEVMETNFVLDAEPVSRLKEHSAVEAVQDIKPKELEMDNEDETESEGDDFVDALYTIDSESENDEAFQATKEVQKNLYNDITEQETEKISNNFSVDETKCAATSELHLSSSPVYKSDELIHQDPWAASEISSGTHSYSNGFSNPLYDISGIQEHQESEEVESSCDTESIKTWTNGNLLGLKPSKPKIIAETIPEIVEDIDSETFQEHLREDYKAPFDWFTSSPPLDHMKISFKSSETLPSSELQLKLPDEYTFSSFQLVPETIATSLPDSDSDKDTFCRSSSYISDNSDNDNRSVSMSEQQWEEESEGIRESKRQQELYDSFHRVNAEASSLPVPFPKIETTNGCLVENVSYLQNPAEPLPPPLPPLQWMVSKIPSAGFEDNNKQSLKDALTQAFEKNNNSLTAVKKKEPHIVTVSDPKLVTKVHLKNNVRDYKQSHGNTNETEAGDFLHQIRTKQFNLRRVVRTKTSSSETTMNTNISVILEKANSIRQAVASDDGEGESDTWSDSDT
Chain of Rac-like GTP-binding protein ARAC2 (Arabidopsis thaliana (Mouse-ear cress)), Q38903 T20D (Q38903 whole entry T20D): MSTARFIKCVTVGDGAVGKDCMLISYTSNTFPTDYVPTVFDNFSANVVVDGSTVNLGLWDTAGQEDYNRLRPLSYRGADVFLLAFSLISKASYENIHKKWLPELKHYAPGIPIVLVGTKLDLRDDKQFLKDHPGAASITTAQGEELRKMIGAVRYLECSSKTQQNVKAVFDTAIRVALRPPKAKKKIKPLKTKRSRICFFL

Row | Substance | effect of a mutation on the interaction [1] | effect of a mutation on the interaction [2] | effect of a mutation on the interaction [3] | effect of a mutation on the interaction [4]
1 | Rac-like GTP-binding protein ARAC9 (Arabidopsis thaliana (Mouse-ear cress)), Q9XGU0 G27V | disrupting interaction | disrupting interaction | disrupting interaction | –
2 | Rac-like GTP-binding protein ARAC2 (Arabidopsis thaliana (Mouse-ear cress)), Q38903 T20D | – | – | – | disrupting interaction
